Results as given in IntAct's records for PubMed 16739988.

B1: Gem-associated protein 5 (Homo sapiens), Q8TEQ6 (parent)
chain: MGQEPRTLPPSPNWYCARCSDAVPGGLFGFAARTSVFLVRVGPGAGESPGTPPFRVIGELVGHTERVSGFTFSHHPGQYNLCATSSDDGTVKIWDVETKTVVTEHALHQHTISTLHWSPRVKDLIVSGDEKGVVFCYWFNRNDSQHLFIEPRTIFCLTCSPHHEDLVAIGYKDGIVVIIDISKKGEVIHRLRGHDDEIHSIAWCPLPGEDCLSINQEETSEEAEITNGNAVAQAPVTKGCYLATGSKDQTIRIWSCSRGRGVMILKLPFLKRRGGGIDPTVKERLWLTLHWPSNQPTQLVSSCFGGELLQWDLTQSWRRKYTLFSASSEGQNHSRIVFNLCPLQTEDDKQLLLSTSMDRDVKCWDIATLECSWTLPSLGGFAYSLAFSSVDIGSLAIGVGDGMIRVWNTLSIKNNYDVKNFWQGVKSKVTALCWHPTKEGCLAFGTDDGKVGLYDTYSNKPPQISSTYHKKTVYTLAWGPPVPPMSLGGEGDRPSLALYSCGGEGIVLQHNPWKLSGEAFDINKLIRDTNSIKYKLPVHTEISWKADGKIMALGNEDGSIEIFQIPNLKLICTIQQHHKLVNTISWHHEHGSQPELSYLMASGSNNAVIYVHNLKTVIESSPESPVTITEPYRTLSGHTAKITSVAWSPHHDGRLVSASYDGTAQVWDALREEPLCNFRGHRGRLLCVAWSPLDPDCIYSGADDFCVHKWLTSMQDHSRPPQGKKSIELEKKRLSQPKAKPKKKKKPTLRTPVKLESIDGNEEESMKENSGPVENGVSDQEGEEQAREPELPCGLAPAVSREPVICTPVSSGFEKSKVTINNKVILLKKEPPKEKPETLIKKRKARSLLPLSTSLDHRSKEELHQDCLVLATAKHSRELNEDVSADVEERFHLGLFTDRATLYRMIDIEGKGHLENGHPELFHQLMLWKGDLKGVLQTAAERGELTDNLVAMAPAAGYHVWLWAVEAFAKQLCFQDQYVKAASHLLSIHKVYEAVELLKSNHFYREAIAIAKARLRPEDPVLKDLYLSWGTVLERDGHYAVAAKCYLGATCAYDAAKVLAKKGDAASLRTAAELAAIVGEDELSASLALRCAQELLLANNWVGAQEALQLHESLQGQRLVFCLLELLSRHLEEKQLSEGKSSSSYHTWNTGTEGPFVERVTAVWKSIFSLDTPEQYQEAFQKLQNIKYPSATNNTPAKQLLLHICHDLTLAVLSQQMASWDEAVQALLRAVVRSYDSGSFTIMQEVYSAFLPDGCDHLRDKLGDHQSPATPAFKSLEAFFLYGRLYEFWWSLSRPCPNSSVWVRAGHRTLSVEPSQQLDTASTEETDPETSQPEPNRPSELDLRLTEEGERMLSTFKELFSEKHASLQNSQRTVAEVQETLAEMIRQHQKSQLCKSTANGPDKNEPEVEAEQPLCSSQSQCKEEKNEPLSLPELTKRLTEANQRMAKFPESIKAWPFPDVLECCLVLLLIRSHFPGCLAQEMQQQAQELLQKYGNTKTYRRHCQTFCM

Variants of: B1
Details: with if4e_human EIF4E

Variant | effect of a mutation on the interaction
Y992A | decreasing interaction
L997A;L998A | decreasing interaction
L265A | decreasing interaction
L270A;K271A | decreasing interaction
